{
  "source": "the nanobody polyreactivity screen of Harvey et al. (2022)",
  "experiment": "yeast display, Sf9 membrane polyspecificity reagent, FACS + sequencing; frameworks hold sequencing errors",
  "how_it_was_run": "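Synthetic nanobody libraries on Saccharomyces cerevisiae BJ5465 were galactose-induced for 36–48 hours, stained 1 hour at 4 °C with 10% biotinylated, detergent-solubilized Sf9 membrane reagent and enriched on streptavidin microbeads. FACS then separated cells into low and high (top ~1%) gates by anti-HA (expression) and streptavidin (reagent binding) fluorescence. Genes were colony-PCR amplified, MiSeq 2 × 250 sequenced and CDR-length filtered. A clone's polyreactivity label is that of its gate of origin.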",
  "data": [
    {"sequence": "QVQLVESGGGLVQAGGSLRLSCAASGSTFYQYVMGWYRQAPGKERELVADITNGGSTYYADSVKGRFTISRDNAKNTVYLQMNSLKPEDTAVYYCAADGGYYWYTYWYGGLYYWGQGTQVTVSS", "values": [
      {"measurement": "polyreactivity (PSR sort gate)", "value": "high polyreactivity"}
    ]},
    {"sequence": "QVQLVESGGCIVQAGGSLRLSSPASGRNFTRYGKGWDRQAPRKERELVAAISKSTGNTYYADCVKGRFTISRDFAKNTVYLQMNSLKPEDTAVYYCAASKNKRPPYDYWGQGTQVNVSS", "values": [
      {"measurement": "polyreactivity (PSR sort gate)", "value": "high polyreactivity"}
    ]},
    {"sequence": "QVQLVESGGGLVQAGGSLRLSCAASGSTFDRNAMGWYRQAPGKERELVAAISRRGGRTYYADSVKGRFTISRDNAKNTVYLQMNSLKPEDTAVYYCAAGKITFPMDYWGQGTQVTVSS", "values": [
      {"measurement": "polyreactivity (PSR sort gate)", "value": "high polyreactivity"}
    ]},
    {"sequence": "QVQLLESGGGLVQAGGSLRLSCAASGSTFDWYVMGWYRQAPGKERELVAAINQGSGSTYYADSVKGRFTISRDNAKNTVYLQMNSLKPEDTAVYYCAADRYGAGYLYWPYDYWGQGTQVTVSS", "values": [
      {"measurement": "polyreactivity (PSR sort gate)", "value": "low polyreactivity"}
    ]},
    {"sequence": "QVQLVESGGGLVQAGGSLRLSCAASGSIFWPYAMGWYRPAPGKERELVATISWNGGSTYYADSVKGRFTISRDNAKNTVYLQMNSLKPEDTAVYYCAAEVYFNQYGGMDYWGQGTQVTVSS", "values": [
      {"measurement": "polyreactivity (PSR sort gate)", "value": "low polyreactivity"}
    ]},
    {"sequence": "QVQLVESCGGLVQAGVSLRLSCAASVFKYAMGRYRQAPGKKRELVAAISSGGITSYADSVKGRFTISRDNAKNTVYLQMNSLKPEDTAVYYCNARLRHSQYAYYYWGQGTQVTLSS", "values": [
      {"measurement": "polyreactivity (PSR sort gate)", "value": "high polyreactivity"}
    ]},
    {"sequence": "QVQLVESGGGLVQAGGSLRLSCAASGRIFGRYAMGWYRQAPGKERELVAAISSGGNTYYADSVKGRFTISRDNAKNTVYLQMNSLKPEDTAVYYCKALYYRQPGYDYWGQGTQVTVSS", "values": [
      {"measurement": "polyreactivity (PSR sort gate)", "value": "high polyreactivity"}
    ]},
    {"sequence": "QVQLVESGGGLVQAGGSLRISCGASGSTFAQNVMGWDRQAPGKERELVAAITSSGSTNYADSVKGRFTISRDNAKNTVYLQMNSLKPEDSAVYYCAKDVLAPYSRHDYWGQGTQVTVSS", "values": [
      {"measurement": "polyreactivity (PSR sort gate)", "value": "low polyreactivity"}
    ]},
    {"sequence": "QVQLVESGGGLVQAGGSLRLSCAASGRTFGTYDMGWYRQAPGKERELVAGINGSGGSTYYADSVKGRFTISRDNAKNTVYLQMNSLKPEDTAVYYCAADRRFSTYDYWGQGTQVTVSS", "values": [
      {"measurement": "polyreactivity (PSR sort gate)", "value": "high polyreactivity"}
    ]},
    {"sequence": "QVQLVESGGGLVQAGGSLRISCAASGSTFEYYAMGWYRQAPGKERELVATISIDGRTNYADSVKGRFTISRDNAKKTVYLQMNSLKPEDTAVYYCAARPYWRHRYDYWGQGTQVTVSS", "values": [
      {"measurement": "polyreactivity (PSR sort gate)", "value": "low polyreactivity"}
    ]},
    {"sequence": "QVQLVESGGGLVQAGGSLRLSCAASGFTFYPYAMGWYRQAPGKESEFVAAITWRGASTYYADSVKGRFTISRDNAKNTVYLQMNSLKPEDTAVYYCNARWRVPRYRYDYWGQGTQVTVSS", "values": [
      {"measurement": "polyreactivity (PSR sort gate)", "value": "high polyreactivity"}
    ]},
    {"sequence": "QVQLVESGGGLVQAGGSLRLSCAASGRIFRSNAMGWYRQAPGKERELVAAINNRDTSTYADSVKGRFTISRDNAKNTVYLQMNSLKPEDTAVYYCAARYQYYSTYGVTLDYWGQGTQVTVSS", "values": [
      {"measurement": "polyreactivity (PSR sort gate)", "value": "low polyreactivity"}
    ]},
    {"sequence": "QVQLVESGGGLVQAGGSLRLSCAASGSTFRPYTMGWYRQAPGKERELVAAINRRGSSTYYADSVKGRFTISRDNAKNTVYLQMNSLKPEDTAVYYCNAVPGSRYGTYDYWGQGTQVTVSS", "values": [
      {"measurement": "polyreactivity (PSR sort gate)", "value": "high polyreactivity"}
    ]}
  ]
}
